A word on the Km: it is the concentration of substrate that gives half-maximal velocity.

Substrate in this series: CN(CC(=O)O)C(=O)CN
Put plainly: cells, lysate or membranes. It is filed as cell-based, Homo sapiens.

B1: hPepT1 (SLC15A1) (Homo sapiens) (protein)
chain: MGMSKSHSFFGYPLSIFFIVVNEFCERFSYYGMRAILILYFTNFISWDDNLSTAIYHTFVALCYLTPILGALIADSWLGKFKTIVSLSIVYTIGQAVTSVSSINDLTDHNHDGTPDSLPVHVVLSLIGLALIALGTGGIKPCVSAFGGDQFEEGQEKQRNRFFSIFYLAINAGSLLSTIITPMLRVQQCGIHSKQACYPLAFGVPAALMAVALIVFVLGSGMYKKFKPQGNIMGKVAKCIGFAIKNRFRHRSKAFPKREHWLDWAKEKYDERLISQIKMVTRVMFLYIPLPMFWALFDQQGSRWTLQATTMSGKIGALEIQPDQMQTVNAILIVIMVPIFDAVLYPLIAKCGFNFTSLKKMAVGMVLASMAFVVAAIVQVEIDKTLPVFPKGNEVQIKVLNIGNNTMNISLPGEMVTLGPMSQTNAFMTFDVNKLTRINISSPGSPVTAVTDDFKQGQRHTLLVWAPNHYQVVKDGLNQKPEKGENGIRFVNTFNELITITMSGKVYANISSYNASTYQFFPSGIKGFTISSTEIPPQCQPNFNTFYLEFGSAYTYIVQRKNDSCPEVKVFEDISANTVNMALQIPQYFLLTCGEVVFSVTGLEFSYSQAPSNMKSVLQAGWLLTVAVGNIIVLIVAGAGQFSKQWAEYILFAALLLVVCVIFAIMARFYTYINPAEIEAQFDEDEKKNRLEKSNPYFMSGANSQKQM
As for B1, the Km worked out at 1000 ± 200 µM.

These data come from paper PMC2428106, “Regulation of intestinal hPepT1 (SLC15A1) activity by phosphodiesterase inhibitors is via inhibition of NHE3 (SLC9A3)” (Biochimica et Biophysica Acta, 2007).
